In patent publication EP2769989A1:

Molecular target: AC133-positive and CD3-positive cells (target of the printed Kd not stated)
Assay: flow cytometry on cells, MFI against antibody concentration, detected with anti-c-Myc mAb and PE anti-mouse F(ab')2; target cell line for this Kd not stated

B1: AC133xCD3-diabody (bispecific single-chain antibody, VHAC133-G4S Linker-VLCD3-(G4S)3 Linker-VHCD3-G4S Linker-VLAC133) (bispecific antibody)
chain: QVQLQQSGAELVRPGASVKLSCKASGYTFSDFEMHWVKQTPVHGLEWIGDIDPGTGDTAYNLKFKGKATLTTDKSSSTAYMELRSLTSEDSAVYYCTLGAFVYWGQGTLVTVSGGGGSDIQMTQSPSSLSASVGDRVTITCRASQDIRNYLNWYQQKPGKAPKLLIYYTSRLESGVPSRFSGSGSGTDYTLTISSLQPEDFATYYCQQGNTLPWTFGQGTKVEIKGGGGSGGGGSGGGGSEVQLVESGGGLVQPGGSLRLSCAASGYSFTGYTMNWVRQAPGKGLEWVALINPYKGVSTYNQKFKDRFTISVDKSKNTAYLQMNSLRAEDTAVYYCARSGYYGDSDWYFDVWGQGTLVTVSSGGGGSDVVVTQTPLSLPVSFGDQVSISCRSSQSLANSYGNTYLSWYLHKPGQSPQLLIYGISNRFSGVPDRFSGSGSGTDFTLKISTIKPEDLGMYYCLQGTHQPYTFGGGTKLEIKRADAAA
- Kd: 6.4 nM
